Data taken from the supplement of paper PMC9170038.

System: MS2 coat protein
Experiment: apparent KD of MS2 coat protein; designed switch direction (-1 OFF switch, 1 ON switch): -1; higher = weaker reporter binding
How it was run: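 For each design, the apparent KD is the median over clusters of curves fitted to normalised cluster fluorescence. Clusters held RNA switches with common flanks, transcribed on Illumina chips by stalled E. coli RNA polymerase. These were titrated with SNAP-549-labelled MS2 coat protein, doubling from 0.7 or 1.5 nM to 3 µM, without input, with 200 uM small-molecule ligand, or with an oligonucleotide input.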

[1] = input ligand: microRNA oligo, concentration not stated
[2] = Eterna round: R95, input ligand: microRNA oligo, concentration not stated
[3] = Eterna round: R95, input ligand: FMN 200 uM
[4] = Eterna round: R95, input ligand: none

Sequence | apparent KD of MS2 coat protein (input ligand: FMN 200 uM) | apparent KD of MS2 coat protein [1] | apparent KD of MS2 coat protein (input ligand: none) | apparent KD of MS2 coat protein [2] | other results
CCCAACGUAACAGGAUAUGCUGUUGAGGCCGGGCGACCUACAUGAGGAUCACCCAUGUCGAAAUGGCAGAAGGGUUGCCGGGUA [Quatin] (Eterna round: R96, puzzle: Exclusion NG 2) | 315 nM | 61.9 nM | 94.4 nM | – | –
AUAUAGUCAGGAUAUCGAAGUGAGUGUUGGUUUGUAAGGUACGAGAAGGGACAUGAGGAUCACCCAUGUAGGAA [JR_Exclusion4)Sub003] (puzzle: Exclusion 4) | – | – | – | 42.7 nM | –
CUCAAACAUGAGGAUCACCCAUGUGAGGAUAUGAUGCGAUCGUCGAAAGACGAUAGCAUCAGAAGGUACAAAUG [Fiskers Ex 1 - 23] (puzzle: Exclusion 1) | – | – | – | 37.9 nM | apparent KD of MS2 coat protein [3]: 37.7 nM; apparent KD of MS2 coat protein [4]: 54.2 nM
UUGUUACAUGAGGAUCACCCAUGUGAGGAUAUGGCCCGCCCGGCGUGAGCUGGUUUUGUCAGAAGGCGCAUAGG [salish99_ex1_r4_024] (Eterna round: R97, puzzle: Exclusion 1) | 79.6 nM | – | 54.2 nM | – | –
GUUGUGUAAGGAUAUGCCUGGCCGUGAGGCCAGAUUGAAUAGCAGAAGGUACAUGAGGAUCACCCAUGUACGGG [salish99_ex4_4_001] (Eterna round: R97, puzzle: Exclusion 4) | 109 nM | – | 22.7 nM | – | –
UUAGAAAUGUUAGGAUAUUAAUAUUUUUUUAGUAUGAUCUACAUGAGGAUCACCCAUGUUAAUAUUAAGAAGGAACAUUUUAUU [JR_ExcNG2_Sub099] (Eterna round: R96, puzzle: Exclusion NG 2) | – | 71.5 nM | – | – | –
CAAAGAUAAGGAUAUUGAAGGUUCGACAUGAGGAUCACCCAUGUUAUGUUGGAAAAGGGACAAGAAGGUAUGAAAC [salish99_ex5_r4_211] (Eterna round: R97, puzzle: Exclusion 5) | 28.2 nM | – | 35.8 nM | – | –
CCGGAAAGGAAGGAUAUGCUAGACGAUAGUCUAGCAGAAGGUCCUACAUGAGGAUCACCCAUGUGGCCUCCCGG [Mat - Exclusion 6 - Eli Mod - D47] (Eterna round: R97, puzzle: Exclusion 6) | 680 nM | – | 114 nM | – | –
AGAGUGUGAGGAUAUAUGGUGCAGAUGAAGGGAUAGAAGGAGUAGAAGGUACAUGAGGAUCACCCAUGUUAGGA [JR_Exclu4_Sub077] (puzzle: Exclusion 4) | – | – | – | 25.5 nM | –
CCGGUUGGCGCAGGAUAUACAUGAGGAUCACCCAUGUUCGUGAGGAUCACCCAUGAGUUUUUGUUGUAGAAGGGUGGCCCGGCC (Eterna round: R96, puzzle: Exclusion NG 2) | 24.4 nM | 16 nM | 28.5 nM | – | –
GAUCCUUUUACGGACGUCUCGAAACAUGAGGAUCACCCAUGUGAGGAUAUCUCCGAAAGGUCGGCAGAGAAGGCACAAUAACAA [MOD2 Eternabot solution 19 score 84.66] (Eterna round: R96, puzzle: Exclusion NG 3) | 29.4 nM | 13 nM | 18.7 nM | – | –
AUCGUGCAGCUUUGCUGUACGAGUACAUGAGGAUCACCCAUGUAGGAUAUGGUACGCUUUGCGUGCUAGAAGGAUAUGUGUAGG [JL EXNG3 1.36] (Eterna round: R96, puzzle: Exclusion NG 3) | 49.1 nM | 30.7 nM | 50.3 nM | – | –
GGAUCGAGUGUGAGGAUAUACCACUGGAUACAGUGGUAGAAGGCACAUGAGGAUCACCCAUGUCCUUACGAUCC [Fiskers BMX 4 - 46] (puzzle: Brourd's mod of Exclusion 4) | – | – | – | 66 nM | –
UUUAUAUAGUAAGGAUAUGUAUUAUUUCUAUCAACAGAAGGUACUGACAUGAGGAUCACCCAUGUUUUAGUGUGGGCAUGUAGU [JMF's solution 97] (Eterna round: R96, puzzle: Exclusion NG 1) | – | 200 nM | – | – | –
ACACAUGAGGAUCACCCAUGUCGGGUCAUAUCCUUCGAGGGCUAGGAUAUCGGGACUACGAAGCCCGAGAAGGAGCACUCGUUA [Ceorsobi] (Eterna round: R96, puzzle: Exclusion NG 3) | 251 nM | 66.3 nM | 105 nM | – | –
AGAUCACAUGAGGAUCACCCAUGUGAGGAUAUAGAUUCAAGAGCUUCGGCUCUACAGUCUAGAAGGCACUAUGA [EX1 #46] (Eterna round: R97, puzzle: Exclusion 1) | 30.4 nM | – | 25.7 nM | – | –
UUGUUAUAUGUAGGAUAUGCAUAUUAUUAUUAUGCAGAAGGACAUGAGGAUCACCCAUGUGUAUUAUUAUUAUAUAUUAUAUAU [Title] (Eterna round: R96, puzzle: Exclusion NG 1) | – | 17.4 nM | – | – | –
CUUCAGUGAGGAUAUGGCAUGCGCUGAUAAGCGCUCUCACGCCAGAAGGCACAUGAGGAUCACCCAUGUAAAAC [Eddionce] (puzzle: Exclusion 4) | – | – | – | 41.3 nM | –
AGGAGCCCACGGGCUCCAAAACAUGAGGAUCACCCAUGUCAGUAGGAUAUCAUGCUUUUCUGCUGUGAGAAGGGCUGAUGUGGC [Esededor] (Eterna round: R96, puzzle: Exclusion NG 3) | 199 nM | 33.8 nM | 49 nM | – | –
UUCAUGUAAGGAUAUACCUCGAGCUGAUGAGAGUCUCAAAUGUAGAAGGUACAUGAGGAUCACCCAUGUACAGG [Eternabot (Original) Solution 5] (Eterna round: R97, puzzle: Exclusion 4) | 65.2 nM | – | 42 nM | – | –
CUGAUGUGAGGAUAUGUGAUCUGCCUUCUAUAUAGAUGAUUACAGAAGGCACAUGAGGAUCACCCAUGUAGAUC [Ex4 - 3 - 25] (puzzle: Exclusion 4) | – | – | – | 51.8 nM | –
CUACCCUCAGGAUAUUUUGCACUGUACAUGAGGAUCACCCAUGUGACGUCUGUUAAUCAAAGAGAAGGGAGAGGUG [Eternabot (L1) Solution 27] (Eterna round: R97, puzzle: Exclusion 5) | 19.7 nM | – | 25.1 nM | – | –
AGUAGAUCUACGCUUGCGUGGAUCUGCAAGGCAGGUGUUACAUGAGGAUCACCCAUGUCCUCAUUUGCUCGUCUUAG [JL turnoff v2 99.07] (puzzle: Sensor v3, turn-off variant 2) | – | – | – | 1100 nM | apparent KD of MS2 coat protein [3]: 358 nM; apparent KD of MS2 coat protein [4]: 332 nM
UUUUAACAUGAGGAUCACCCAUGUGAGGAUAUCGAAAUUUAUAUUAAUAUUAAUUUAUCGAGAAGGCACAUUUU [JMF 32] (puzzle: Exclusion 1) | – | – | – | 108 nM | –
GUCACUAGAGGAUAUACAAUGGUAUAUGAUCCUAGAGACAAACAUGAGGAUCACCCAUGUAGAAGGCUAGUAUU [Exclusion 2 - 4] (puzzle: Exclusion 2) | – | – | – | 93.4 nM | –
